Measured values from patent US12618044B2, “Specification of functional cranial placode derivatives from human pluripotent stem cells” (MEMORIAL SLOAN-KETTERING CANCER CENTER, priority 2013, dated 2026).

Legend:
Assay type in all cases: cell-based, human
hESC [1] = experiment: Floor plate induction from hESC (FOXA2 expression); settings: for FP competency / FOXA2 induction: added to neural rosette stage cells
Method: (§1) For MS5 induction, established methods previously reported were used (Perrier et al., 2004). Feeder free neural induction was carried out as previously described (Chambers et al., 2009). Briefly, hESCs cultures were disaggregated using accutase for 20 minutes, washed using hESCs media and pre-plated on gelatin for 1 hour at 37° C. in the presence of ROCK inhibitor to remove MEFs. The nonadherent hESCs were washed and plated on matrigel at a density of 20,000 cells/cm2 on matrigel (BD) coated dishes in MEF conditioned hESCs media (CM) spiked with 10 ng/mL of FGF-2 and ROCK-inhibitor. The ROCK inhibitor was withdrawn, and hESCs were allowed to expand in CM for 3 days or until they were nearly confluent. The initial differentiation media conditions included knock out serum replacement (KSR) media with […] TGF-b inhibitor (SB431542, Tocris) and 500 ng/mL of Noggin (R&D). Upon day 5 of differentiation, increasing amounts of N2 media (25%, 50%, 75%) was added to the KSR media every two days while maintaining 500 ng/mL of Noggin and TGF-b inhibitor. For FP induction, Sonic C25II was added at 200 ng/ml. In some experiments, DKK-1 (R&D 100 ng/ml) FGF8 (R&D 50 ng/ml), Wnt-1 (Peprotech 50 ng/ml) and Retinoic Acid (R&D 1 uM) were added.
Tissue was fixed using 4% paraformaldehyde and Picric acid for 15 minutes, washed with PBS, permeabalized using 0.3% Triton X in PBS, and blocked using 10% Donkey Serum. Primary antibodies used for microscopy included PAX6 (Covance), TUJ1 (Covance), ZO1 (Zymed), BF1 (FOXG1, gift E.Lai), TH (Pelfreez), NKX6.1 (DSHB) and FOXA2 (SantaCruz).
Based on the hypothesis that FP specification in the mouse occurs at early developmental stages, at the time of or prior to neural induction, the inventors repeated SHH induction studies at Day 9, the time of rosette specification, using classic stromal-feeder mediated neural induction protocols (Elkabetz et al., 2008). Under this paradigm the inventors noticed a drastic change in cell morphology restricted to the cells treated with SHH-C25II (FIG. 15B). […] In addition to decreased expression of BF1 the inventors also observed decreased expression of PAX6, another maker expressed in the AN (FIG. 1E). […] The inventors performed dose response studies to understand how FP marker induction compared to that of NKX6.1 expression; a gene known to respond to lower concentrations of SHH. […] At higher concentrations FP markers rapidly rise, while NKX6.1 expression tapers off (FIG. 15G).
Using this protocol, in combination with compositions and methods of the present inventions, the inventors aimed to optimize FP differentiation by adding Sonic C25II at different time points during neural induction and assaying for FOXA2 expression. Differentiation was initiated upon NSB exposure, and Sonic C25II was added at Day 1, Day 3, Day 5, or Day 7 (FIG. 16A). […] Furthermore, the differentiation conditions establish a robust platform for inducing human FOXA2+ cells in vitro.

hESC [2] = experiment: Real-Time PCR of pluripotency and germ layer markers in treated hESC
Method: There is also evidence for suppression of alternative embryonic germ layers such as Noggin-mediated suppression of SOX17 (endodermal lineage) and SB431542-mediated suppression of Brachyury (mesodermal lineage) (FIG. 1C).
Total RNA was extracted using an RNeasy kit (Qiagen). For each sample, 1 ug of total RNA was treated for DNA contamination and reverse transcribed using the Quantitect RT kit (Qiagen). Amplified material was detected using Quantitect SYBR green probes and PCR kit (Qiagen) on a Mastercycler RealPlex2 (Eppendorf). Results were normalized to a HPRT control and are from 4-6 technical replicates of 2-3 independent biological samples at each data point.

hESC [3] = experiment: Placode induction from hESC (N-SB versus PIP, SIX1 expression); settings: pre-placode cells
Method: A timed withdrawal of the BMP inhibitor Noggin during N-SB differentiation was also tested to determine if placodal fates could be induced via derepressing endogenous BMP signaling. A time course analysis was performed during which Noggin was removed at different time points of the N-SB protocol (FIG. 28A).
Withdrawal of the BMP inhibitor noggin during N-SB differentiation may enhance the emergence of placodal fates by de-repressing endogenous BMP signaling. To this end, a time course study was performed by removing noggin at different time points of the NSB protocol (FIG. 11A) while monitoring the induction of placodal marker (FIG. 11B) trophoectodermal, neurectodermal by qRT-PCR analysis at day 11 of differentiation. Withdrawal of noggin at day 2 or 3 of differentiation yielded efficient induction of Six1 while noggin withdrawal at day 1 of differentiation lead to the induction of Eya1 in the absence of Six1 expression.
Neural Induction and placode induction: Feeder-free neural induction was carried out as previously described (Chambers et al., 2009). Briefly, hESCs cultures were disaggregated using accutase for 20 minutes, washed using hESCs media and pre-plated on gelatin for 1 hour at 37° C. in the presence of ROCK inhibitor to remove MEFs. The non-adherent hESCs were washed and plated on matrigel at a density of 60,000 cells/cm2 on matrigel (BD) coated dishes in MEF conditioned hESCs media (CM) spiked with 10 ng/mL of FGF-2 and ROCK-inhibitor. The ROCK inhibitor was withdrawn after 24 hours, and hESCs were allowed to expand in CM for 2 days or until they were 95% confluent. The initial differentiation media conditions included knock out serum replacement (KSR) media with 10 μM TGF-β inhibitor (SB431542, Tocris) and 250 ng/mL of Noggin (R&D). Upon day 5 of differentiation, increasing amounts of N2 media (25%, 50%, and 75%) were added to the KSR media every two days while maintaining […] of Noggin and TGF-β inhibitor. Similar results could be obtained when using KSR-free conditions (E6 medium (Chen et al., 2011)) following adjustments in BMP signaling; data not shown). For placode induction, Noggin was removed at day3 of differentiation. In some experiments, BMP-4 (R&D 50 ng/ml), Noggin (R&D 250 ng/ml), DKK-1 (R&D 100 ng/ml), FGF8 (R&D 50 ng/ml), SU5402 (Tocris 10 μM), Wnt-3a (R&D 50 ng/ml), DAPT (Tocris, 10 μM), CHIR99021 (Stemgent, 3 μM), Cyclopamine (Tocris, 10 μM), Sonic Hedgehog (C25II-R&D 100 ng/ml), and Purmorphamine (Stemgent, 1 μM), were added.
Microscopy, antibodies, and flow cytometry: Cells were fixed using 4% paraformaldehyde for 15 minutes, washed with PBS, permeabilized using 0.3% Triton X in PBS, and blocked using 1% BSA. Primary antibodies used for microscopy included PAX6 (Covance, DSHB), TUJ1 (Covance), BRN3A (Chemicon), AP2a (DSHB), HNK1 (Sigma), PAX3 (DSHB), SIX1 (ABR, Atlas), ISL1 (DSHB), PERIPHERIN (Santa Cruz), GSU (gift A. McNeilly), CRYAB (Chemicon), DACH1 (Proteintech), EYA1 (gift Kawakami), E-CADHERIN (Abcam), FSH (gift A. McNeilly), GATA2 (Abcam), chick GFP (Abcam), hNCAM (Santa Cruz), GLUTAMATE (Sigma), KRT14 (Labvision), SIX6 (Atlas), LHX3 (Abcam), OVOL2 (Aviva), TFAP2A (DSHB), FOXG1 (gift E. Lai), hCA (Stem Cells), and Ki67 (Sigma). Appropriate Alexa 488, Alexa 568, Alexa 647 secondary antibodies (Molecular Probes) and/or DAPI counterstaining was used for visualization. For Flow Cytometry, cells were mechanically dissociated after exposure to accutase for 20 min at 25° C. To eliminate dead cell populations in FACS analysis, we used DAPI or 7-AAD according to manufacturer's recommendation. Cells were analyzed using FACScan (Becton Dickinson) and FlowJo software (Tree Star, Inc.).

hESC derived FP = experiment: A/P respecification of hESC derived FP by caudalizing factors
Method: as §1
The inventors contemplated the use of SIX6 as a putative marker of anterior FP identity. Thus SIX6 status of the hESC derived FP was used to mark respecification in response to known caudalizing agents such as FGF8, Wnt-1, and Retinoic Acid. Each of these caudalizing factors was added in combination with SHH and the resulting tissue was assessed for expression of the FP markers FOXA2 and NETRIN-1, the AN marker BF1, and putative anterior FP marker SIX6. FP generation was found not compromised in the presence of caudalizing factors.
The inventors discovered that different factors had varied effects on marker expression (FIG. 20C).
As mentioned above, studies had identified different enhancers that directed SHH expression to different A/P region along ventral axis (Jeong et al., 2008). […] In the absence of caudalizing factors (SHH C25II alone), LacZ expression was observed herein following transfection with the SBE2 but not the SBE1 enhancer supporting the hypothesis that hESC derived FP is anterior by default (FIG. 20D). In contrast SBE2 activity was abolished upon treatment with Wnt1 or FGF8 while SBE1 activity was induced under these conditions.

[4] = in combination with Sonic C25II

O=C1Nc2cc(Br)ccc2/C1=C1/Nc2ccccc2/C1=N\O [BIO, reference compound]
FOXA2 expression (hESC [1]; added early, BIO 100 nM): increase | FP competency / FOXA2 induction (hESC [1]): not sufficient

NC(=O)c1ccc(-c2nc(-c3ccc4c(c3)OCO4)c(-c3ccccn3)[nH]2)cc1 [SB431542, 4-[4-(1,3-benzodioxol-5-yl)-5-(2-pyridinyl)-1H-imidazol-2-yl]-benzamide]
Brachyury (mesodermal lineage) (hESC [2]): suppression | CDX2 expression (hESC [2]): dramatic increase | Nanog expression (hESC [2]): rapid loss

Noggin
CDX2 expression (hESC [2]): Suppression | SOX17 (endodermal lineage) (hESC [2]): suppression

B1: Wnt3A: WNT protein, caudalizing cue (protein, UniProt P56704 19-352, looked up)
Protein Wnt-3a: SYPIWWSLAVGPQYSSLGSQPILCASIPGLVPKQLRFCRNYVEIMPSVAEGIKIGIQECQHQFRGRRWNCTTVHDSLAIFGPVLDKATRESAFVHAIASAGVAFAVTRSCAEGTAAICGCSSRHQGSPGKGWKWGGCSEDIEFGGMVSREFADARENRPDARSAMNRHNNEAGRQAIASHMHLKCKCHGLSGSCEVKTCWWSQPDFRAIGDFLKDKYDSASEMVVEKHRESRGWVETLRPRYTYFKVPTERDLVYYEASPNFCEPNPETGSFGTRDRTCNVSSHGIDGCDLLCCGRGHNARAERRREKCRCVFHWCCYVSCQECTRVYDVHTCK
otic placode compatible population (hESC [3]): induction of a population of cells coexpressing SIX1 and SOX10 | FP competency / FOXA2 induction (hESC [1]): not sufficient

B2: Wnt-1: caudalizing factor, wingless-type MMTV integration site family, member 1 (protein, UniProt P04628 28-370, looked up)
Proto-oncogene Wnt-1: ANSSGRWWGIVNVASSTNLLTDSKSLQLVLEPSLQLLSRKQRRLIRQNPGILHSVSGGLQSAVRECKWQFRNRRWNCPTAPGPHLFGKIVNRGCRETAFIFAITSAGVTHSVARSCSEGSIESCTCDYRRRGPGGPDWHWGGCSDNIDFGRLFGREFVDSGEKGRDLRFLMNLHNNEAGRTTVFSEMRQECKCHGMSGSCTVRTCWMRLPTLRAVGDVLRDRFDGASRVLYGNRGSNRASRAELLRLEPEDPAHKPPSPHDLVYFEKSPNFCTYSGRLGTAGTAGRACNSSSPALDGCELLCCGRGHRTRTQRVTERCNCTFHWCCHVSCRNCTHTRVLHECL
FP competency / FOXA2 induction (hESC [1]): not sufficient | FP competency / FOXA2 induction (hESC [1]; listed as WNT1): no effect | midbrain FP markers CORIN and NOV (hESC derived FP): significant increase | SBE1 activity (hESC derived FP; SHH enhancer LacZ construct): induced | SBE2 activity (hESC derived FP; SHH enhancer LacZ construct): abolished | BF1 expression (hESC derived FP; in combination with SHH): dramatic reduction | FP production based on FOXA2 and Netrin-1 expression (hESC derived FP; in combination with SHH): significantly potentiated | SIX6 expression (hESC derived FP; in combination with SHH): significant reduction

B3: DKK-1: recombinant DKK-1, Wnt signaling inhibitor (protein, UniProt O94907 32-266, looked up)
Dickkopf-related protein 1: TLNSVLNSNAIKNLPPPLGGAAGHPGSAVSAAPGILYPGGNKYQTIDNYQPYPCAEDEECGTDEYCASPTRGGDAGVQICLACRKRRKRCMRHAMCCPGNYCKNGICVSSDQNHFRGEIEETITESFGNDHSTLDGYSRRTTLSSKMYHTKGQEGSVCLRSSDCASGLCCARHFWSKICKPVLKEGQVCTKHRRKGSHGLEIFQRCYCGEGLSCRIQKDHHQASNSSRLHTCQRH
FOXA2+ cells (hESC [1]; added along with SHH at Day1, 9 days of SHH exposure): increase | BF1 transcript (hESC [1]; [4]): more rapid rise | FOXA2 message and protein (hESC [1]; [4]): decrease
